In patent US6960559 (UNIVERSITY OF ZURICH, dated 2005):
The star is where a group is joined. Cbz = O=C(OCc1ccccc1)*

B1: cbz-AFY-NH2 (peptide)
peptide: Cbz-Ala-Phe-Tyr-NH2
SMILES: C[C@H](NC(=O)OCc1ccccc1)C(=O)N[C@@H](Cc1ccccc1)C(=O)N[C@@H](Cc1ccc(O)cc1)C(N)=O
B2: carbobenzoxy-Phe-Ala-Phe-Tyr-amide (peptide)
peptide: Cbz-FAFY-NH2
SMILES: C[C@H](NC(=O)[C@H](Cc1ccccc1)NC(=O)OCc1ccccc1)C(=O)N[C@@H](Cc1ccccc1)C(=O)N[C@@H](Cc1ccc(O)cc1)C(N)=O

Target: T1, C6 plasma membrane associated metalloendoprotease (rat C6 glioblastoma cells) (rat)
Assay: cell-based or functional assay

IC50 on CNS myelin [µM], half maximal inhibition of C6 cell spreading	Binder
600 µM	Cbz-Phe-Ala-NH2 (SMILES C[C@H](NC(=O)[C@H](Cc1ccccc1)NC(=O)OCc1ccccc1)C(N)=O) [cbz-FA-NH2]
300 µM	Cbz-Tyr-Tyr-OH (SMILES O=C(N[C@@H](Cc1ccc(O)cc1)C(=O)N[C@@H](Cc1ccc(O)cc1)C(=O)O)OCc1ccccc1) [carbobenzoxy-tyrosine-tyrosine]
600 µM	Cbz-Gly-Phe-NH2 (SMILES NC(=O)[C@H](Cc1ccccc1)NC(=O)CNC(=O)OCc1ccccc1) [carbobenzoxy-Gly-Phe-amide]
20 µM	B1
600 µM	Cbz-Ala-Phe-NH2 (SMILES C[C@H](NC(=O)OCc1ccccc1)C(=O)N[C@@H](Cc1ccccc1)C(N)=O) [cbz-AF-NH2]
8 µM	Cbz-Gly-Phe-Phe-NH2 (SMILES NC(=O)[C@H](Cc1ccccc1)NC(=O)[C@H](Cc1ccccc1)NC(=O)CNC(=O)OCc1ccccc1) [Carbobenzoxy-Gly-Phe-Phe-amide]
300 µM	Cbz-Gly-Phe-Phe-OH (SMILES O=C(CNC(=O)OCc1ccccc1)N[C@@H](Cc1ccccc1)C(=O)N[C@@H](Cc1ccccc1)C(=O)O) [cbz-GFF]
1000 µM	H-Ala-Phe-Tyr-NH2 [AFY-NH2]
300 µM	H-FAFY-NH2 [FAFY-NH2]
3 µM	B2

Target: T1, C6 plasma membrane associated …
Assay: cell-based or functional assay
Remark: another data set of the same source

IC50 of C6 cell spreading on CNS myelin	Binder
5 µM	Cbz-Gly-Leu-Phe-NH2 (SMILES CC(C)C[C@H](NC(=O)CNC(=O)OCc1ccccc1)C(=O)N[C@@H](Cc1ccccc1)C(N)=O) [cbz-GLF-NH2]
5 µM	Cbz-Gly-Phe-Phe-OMe (SMILES COC(=O)[C@H](Cc1ccccc1)NC(=O)[C@H](Cc1ccccc1)NC(=O)CNC(=O)OCc1ccccc1) [cbz-GFF-OCH3]
